Patent publication CN113045662A (SEEBIO BIOTECHNOLOGY SHANGHAI CO LTD, dated 2021)

Molecular target: T1, PD-L1-Ig-V (UniProt Q9NZQ7 19-134)
T1 construct: domain: Ig-V; also called PD-L1胞外域蛋白; not shown: His-Tag from the pET-28a vector
Test: non-competitive checkerboard ELISA, mean of 6 K values

T1 sequence (Q9NZQ7 19-134): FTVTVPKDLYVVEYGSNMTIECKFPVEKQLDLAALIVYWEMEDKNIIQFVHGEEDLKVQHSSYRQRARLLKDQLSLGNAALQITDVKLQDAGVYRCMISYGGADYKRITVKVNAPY

B1: PD-L1-Ig-V-VHH 6-21 (VHH)
VHH: DVQLQASGGGLVQAGGSLRLSCAASRMIFSTFSIQDMGWYRQAPGKQRDLVALITSDGSTNYADSVKGRFTISRDNAKSTVYLQMNNLKPEDTAVYYCAATDNVSGGRLLLNIWWMRDMWYNYWGQGTLVTVSS
notes: Nanobody from a synthetic phage display library (pCANTAB5E, M13K07 helper phage); also called 6-21号克隆
- Ka: ~1.93e+08 M⁻¹
